Results on two substances are retold here after patent publication US20130058911.

The data set has as its system metmyoglobin.

For the substance “recombinant malate dehydrogenase (MDH) of Bacillus natto with C-terminal 6x His-tag”, the “metmyoglobin reduction activity (change in A406 with NADH)” value was “the activity of MDH was not found”.

As for “recombinant putative NAD(P)H nitroreductase (yodC) of Bacillus natto with C-terminal 6x His-tag”, the “metmyoglobin reduction activity (change in A406 with NADH)” value is reported as “the activity of yodC was confirmed”.
